Data taken from US20110091994A1, “Methods for Screening Compounds for Treating and/or Preventing an Hepatitis C Virus Infection” (priority 2008, published 2011).
Like-named read-outs stand apart in the source and are kept apart here.

What was measured:
[1] = tested on: HCV ORFs (Gal4-DB fusions); type: binding, HCV genotype 1b, isolate con1; conditions: human protein listed by gene symbol; the value names the HCV protein it interacts with
[2] = biological target: T1, HCV ORFs (Gal4-DB fusions) (Hepatitis C virus genotype 1b, UniProt Q9WMX2); type: binding, HCV genotype 1b, isolate con1; conditions: human protein as prey
T1 construct: expressed in transfected cells; host or cells: Saccharomyces cerevisiae MAV203 (IMAP1) / AH109 (IMAP2)

HCV proteins = biological target: T2, HCV proteins (Hepatitis C virus genotype 1b, UniProt Q9WMX2); test: Validation by Y2H pairwise matrices; type: binding;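 note: yeast two-hybrid pairwise tests of interactions first found in Y2H screens of HCV bait proteins against human cDNA libraries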
T2 construct: expressed in transfected cells

[3] = validation of interaction with HCV protein NS3
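Throughout, for IMAP Y2H IMAP1 (number of IST): yeast two-hybrid screens using HCV genotype 1b proteins fused to Gal4-DB as baits against prey cDNA libraries from human spleen and foetal brain, IMAP1 via transformation and IMAP2 via mating.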
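Throughout, for Interaction with viral protein: yeast two-hybrid screens using HCV genotype 1b proteins fused to Gal4-DB as baits against prey cDNA libraries from human spleen and foetal brain, IMAP1 via transformation and IMAP2 via mating.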

Row | Molecule | Interaction with viral protein [1] | IMAP Y2H IMAP1 (number of IST) ([2]; HCV protein NS3 as bait) | Y2H matrices (HCV proteins; [3]) | IMAP Y2H IMAP1 (number of IST) ([2]; HCV protein CORE as bait) | Y2H matrices (HCV proteins; validation of interaction with HCV protein CORE)
1 | SECISBP2 (protein, UniProt Q96T21 1-854, looked up) Selenocysteine insertion …: MASEGPREPESEGIKLSADVKPFVPRFAGLNVAWLESSEACVFPSSAATYYPFVQEPPVTEQKIYTEDMAFGASTFPPQYLSSEITLHPYAYSPYTLDSTQNVYSVPGSQYLYNQPSCYRGFQTVKHRNENTCPLPQEMKALFKKKTYDEKKTYDQQKFDSERADGTISSEIKSARGSHHLSIYAENSLKSDGYHKRTDRKSRIIAKNVSTSKPEFEFTTLDFPELQGAENNMSEIQKQPKWGPVHSVSTDISLLREVVKPAAVLSKGEIVVKNNPNESVTANAATNSPSCTRELSWTPMGYVVRQTLSTELSAAPKNVTSMINLKTIASSADPKNVSIPSSEALSSDPSYNKEKHIIHPTQKSKASQGSDLEQNEASRKNKKKKEKSTSKYEVLTVQEPPRIEDAEEFPNLAVASERRDRIETPKFQSKQQPQDNFKNNVKKSQLPVQLDLGGMLTALEKKQHSQHAKQSSKPVVVSVGAVPVLSKECASGERGRRMSQMKTPHNPLDSSAPLMKKGKQREIPKAKKPTSLKKIILKERQERKQRLQENAVSPAFTSDDTQDGESGGDDQFPEQAELSGPEGMDELISTPSVEDKSEEPPGTELQRDTEASHLAPNHTTFPKIHSRRFRDYCSQMLSKEVDACVTDLLKELVRFQDRMYQKDPVKAKTKRRLVLGLREVLKHLKLKKLKCVIISPNCEKIQSKGGLDDTLHTIIDYACEQNIPFVFALNRKALGRSLNKAVPVSVVGIFSYDGAQDQFHKMVELTVAARQAYKTMLENVQQELVGEPRPQAPPSLPTQGPSCPAEDGPPALKEKEEPHYIEIWKKHLEAYSGCTLELEESLEASTSQMMNLNL | NS3 | 1 | + |  | 
2 | SESTD1 (protein, UniProt Q86VW0 1-696, looked up) SEC14 domain and spectrin …: MEASVILPILKKKLAFLSGGKDRRSGLILTIPLCLEQTNMDELSVTLDYLLSIPSEKCKARGFTVIVDGRKSQWNVVKTVVVMLQNVVPAEVSLVCVVKPDEFWDKKVTHFCFWKEKDRLGFEVILVSANKLTRYIEPCQLTEDFGGSLTYDHMDWLNKRLVFEKFTKESTSLLDELALINNGSDKGNQQEKERSVDLNFLPSVDPETVLQTGHELLSELQQRRFNGSDGGVSWSPMDDELLAQPQVMKLLDSLREQYTRYQEVCRQRSKRTQLEEIQQKVMQVVNWLEGPGSEQLRAQWGIGDSIRASQALQQKHEEIESQHSEWFAVYVELNQQIAALLNAGDEEDLVELKSLQQQLSDVCYRQASQLEFRQNLLQAALEFHGVAQDLSQQLDGLLGMLCVDVAPADGASIQQTLKLLEEKLKSVDVGLQGLREKGQGLLDQISNQASWAYGKDVTIENKENVDHIQGVMEDMQLRKQRCEDMVDVRRLKMLQMVQLFKCEEDAAQAVEWLSELLDALLKTHIRLGDDAQETKVLLEKHRKFVDVAQSTYDYGRQLLQATVVLCQSLRCTSRSSGDTLPRLNRVWKQFTIASEERVHRLEMAIAFHSNAEKILQDCPEEPEAINDEEQFDEIEAVGKSLLDRLTVPVVYPDGTEQYFGSPSDMASTAENIRDRMKLVNLKRQQLRHPEMVTTES | NS3 | 1 | + |  | 
3 | SIAH1 (protein, UniProt Q8IUQ4 1-282, looked up) E3 ubiquitin-protein ligase …: MSRQTATALPTGTSKCPPSQRVPALTGTTASNNDLASLFECPVCFDYVLPPILQCQSGHLVCSNCRPKLTCCPTCRGPLGSIRNLAMEKVANSVLFPCKYASSGCEITLPHTEKADHEELCEFRPYSCPCPGASCKWQGSLDAVMPHLMHQHKSITTLQGEDIVFLATDINLPGAVDWVMMQSCFGFHFMLVLEKQEKYDGHQQFFAIVQLIGTRKQAENFAYRLELNGHRRRLTWEATPRSIHEGIATAIMNSDCLVFDTSIAQLFAENGNLGINVTISMC | NS3 | 1 | + |  | 
4 | SDCCAG8 (protein, UniProt Q86SQ7 1-713, looked up) Serologically defined colon …: MAKSPENSTLEEILGQYQRSLREHASRSIHQLTCALKEGDVTIGEDAPNLSFSTSVGNEDARTAWPELQQSHAVNQLKDLLRQQADKESEVSPSRRRKMSPLRSLEHEETNMPTMHDLVHTINDQSQYIHHLEAEVKFCKEELSGMKNKIQVVVLENEGLQQQLKSQRQEETLREQTLLDASGNMHNSWITTGEDSGVGETSKRPFSHDNADFGKAASAGEQLELEKLKLTYEEKCEIEESQLKFLRNDLAEYQRTCEDLKEQLKHKEFLLAANTCNRVGGLCLKCAQHEAVLSQTHTNVHMQTIERLVKERDDLMSALVSVRSSLADTQQREASAYEQVKQVLQISEEANFEKTKALIQCDQLRKELERQAERLEKELASQQEKRAIEKDMMKKEITKEREYMGSKMLILSQNIAQLEAQVEKVTKEKISAINQLEEIQSQLASREMDVTKVCGEMRYQLNKTNMEKDEAEKEHREFRAKTNRDLEIKDQEIEKLRIELDESKQHLEQEQQKAALAREECLRLTELLGESEHQLHLTRQEKDSIQQSFSKEAKAQALQAQQREQELTQKIQQMEAQHDKTENEQYLLLTSQNTFLTKLKEECCTLAKKLEQISQKTRSEIAQLSQEKRYTYDKLGKLQRRNEELEEQCVQHGRVHETMKQRLRQLDKHSQATAQQLVQLLSKQNQLLLERQSLSEEVDRLRTQLPSMPQSDC | NS3 | 1 | + |  | 
5 | PAK4 (protein, UniProt O96013 1-591, looked up) Serine/threonine-protein …: MFGKRKKRVEISAPSNFEHRVHTGFDQHEQKFTGLPRQWQSLIEESARRPKPLVDPACITSIQPGAPKTIVRGSKGAKDGALTLLLDEFENMSVTRSNSLRRDSPPPPARARQENGMPEEPATTARGGPGKAGSRGRFAGHSEAGGGSGDRRRAGPEKRPKSSREGSGGPQESSRDKRPLSGPDVGTPQPAGLASGAKLAAGRPFNTYPRADTDHPSRGAQGEPHDVAPNGPSAGGLAIPQSSSSSSRPPTRARGAPSPGVLGPHASEPQLAPPACTPAAPAVPGPPGPRSPQREPQRVSHEQFRAALQLVVDPGDPRSYLDNFIKIGEGSTGIVCIATVRSSGKLVAVKKMDLRKQQRRELLFNEVVIMRDYQHENVVEMYNSYLVGDELWVVMEFLEGGALTDIVTHTRMNEEQIAAVCLAVLQALSVLHAQGVIHRDIKSDSILLTHDGRVKLSDFGFCAQVSKEVPRRKSLVGTPYWMAPELISRLPYGPEVDIWSLGIMVIEMVDGEPPYFNEPPLKAMKMIRDNLPPRLKNLHKVSPSLKGFLDRLLVRDPAQRATAAELLKHPFLAKAGPPASIVPLMRQNRTR | CORE |  |  | 1 | +
6 | SF3B2 (protein, UniProt Q13435 1-895, looked up) Splicing factor 3B subunit 2: MATEHPEPPKAELQLPPPPPPGHYGAWAAQELQAKLAEIGAPIQGNREELVERLQSYTRQTGIVLNRPVLRGEDGDKAAPPPMSAQLPGIPMPPPPLGLPPLQPPPPPPPPPPGLGLGFPMAHPPNLGPPPPLRVGEPVALSEEERLKLAQQQAALLMQQEERAKQQGDHSLKEHELLEQQKRAAVLLEQERQQEIAKMGTPVPRPPQDMGQIGVRTPLGPRVAAPVGPVGPTPTVLPMGAPVPRPRGPPPPPGDENREMDDPSVGPKIPQALEKILQLKESRQEEMNSQQEEEEMETDARSSLGQSASETEEDTVSVSKKEKNRKRRNRKKKKKPQRVRGVSSESSGDREKDSTRSRGSDSPAADVEIEYVTEEPEIYEPNFIFFKRIFEAFKLTDDVKKEKEKEPEKLDKLENSAAPKKKGFEEEHKDSDDDSSDDEQEKKPEAPKLSKKKLRRMNRFTVAELKQLVARPDVVEMHDVTAQDPKLLVHLKATRNSVPVPRHWCFKRKYLQGKRGIEKPPFELPDFIKRTGIQEMREALQEKEEQKTMKSKMREKVRPKMGKIDIDYQKLHDAFFKWQTKPKLTIHGDLYYEGKEFETRLKEKKPGDLSDELRISLGMPVGPNAHKVPPPWLIAMQRYGPPPSYPNLKIPGLNSPIPESCSFGYHAGGWGKPPVDETGKPLYGDVFGTNAAEFQTKTEEEEIDRTPWGELEPSDEESSEEEEEEESDEDKPDETGFITPADSGLITPGGFSSVPAGMETPELIELRKKKIEEAMDGSETPQLFTVLPEKRTATVGGAMMGSTHIYDMSTVMSRKGPAPELQGVEVALAPEELELDPMAMTQKYEEHVREQQAQVEKEDFSDMVAEHAAKQKQKKRKAQPQDSRGGSKKYKEFKF | NS3 | 1 | + |  | 
7 | SERTAD1 (protein, UniProt Q9UHV2 1-236, looked up) SERTA domain-containing …: MLSKGLKRKREEEEEKEPLAVDSWWLDPGHTAVAQAPPAVASSSLFDLSVLKLHHSLQQSEPDLRHLVLVVNTLRRIQASMAPAAALPPVPSPPAAPSVADNLLASSDAALSASMASLLEDLSHIEGLSQAPQPLADEGPPGRSIGGAAPSLGALDLLGPATGCLLDDGLEGLFEDIDTSMYDNELWAPASEGLKPGPEDGPGKEEAPELDEAELDYLMDVLVGTQALERPPGPGR | NS3 | 3 | + |  | 
